The values below come from article doi:10.1101/2025.03.17.643790.

The assay addresses fibrillar amyloid-beta (UniProt P05067). Nature of the assay: SPR. Background: Surface plasmon resonance follows binding to a sensor surface in real time, without labels.
Sequence of UniProt P05067 (P05067 672-713): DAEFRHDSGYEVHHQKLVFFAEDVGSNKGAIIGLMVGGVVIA

A word on the Kd: it is the free concentration of one partner at which half of the binding sites on the other are occupied at equilibrium, for simple one-to-one binding. A high value points to lower affinity. In turn, “Galectin-3 (from UniProt P17931 1-250) (natural protein)” registered a Kd of 9 nM. That is a single-digit nanomolar value.
